Test results taken from paper doi:10.1101/2025.04.14.648762, “P-Rex1 Limits the Agonist-Induced Internalisation of GPCRs Independently of its Rac-GEF Activity” (bioRxiv, 2025).

What was measured:
Assay in all cases: pull-down; 5 pmol P-Rex1 or P-Rex2 protein (2.5 pmol for P-Rex1 mutants) with 5 pmol GST or GST-Grk2 in 20 µl detergent-free buffer (50 mM Hepes pH 7.2, 150 mM NaCl), 1 h on ice; isolated on magnetic glutathione agarose; beads washed in buffer with 1% NP-40; western blot
Conditions in all cases: both partners purified
GEF-dead EE-P-Rex1 = biological target: T1, GEF-dead EE-P-Rex1 (human, UniProt Q8TCU6 1-1659, E56A | N238A)
T1 construct: P-Rex1, human, with point mutations E56A and N238A in the DH domain; also called GEF-dead P-Rex1; P-Rex1 E56A N238A; source: baculovirus-infected Sf9 cells, purified using the EE tag
T1 sequence (Q8TCU6 whole entry E56A/N238A, the tested form may be a part): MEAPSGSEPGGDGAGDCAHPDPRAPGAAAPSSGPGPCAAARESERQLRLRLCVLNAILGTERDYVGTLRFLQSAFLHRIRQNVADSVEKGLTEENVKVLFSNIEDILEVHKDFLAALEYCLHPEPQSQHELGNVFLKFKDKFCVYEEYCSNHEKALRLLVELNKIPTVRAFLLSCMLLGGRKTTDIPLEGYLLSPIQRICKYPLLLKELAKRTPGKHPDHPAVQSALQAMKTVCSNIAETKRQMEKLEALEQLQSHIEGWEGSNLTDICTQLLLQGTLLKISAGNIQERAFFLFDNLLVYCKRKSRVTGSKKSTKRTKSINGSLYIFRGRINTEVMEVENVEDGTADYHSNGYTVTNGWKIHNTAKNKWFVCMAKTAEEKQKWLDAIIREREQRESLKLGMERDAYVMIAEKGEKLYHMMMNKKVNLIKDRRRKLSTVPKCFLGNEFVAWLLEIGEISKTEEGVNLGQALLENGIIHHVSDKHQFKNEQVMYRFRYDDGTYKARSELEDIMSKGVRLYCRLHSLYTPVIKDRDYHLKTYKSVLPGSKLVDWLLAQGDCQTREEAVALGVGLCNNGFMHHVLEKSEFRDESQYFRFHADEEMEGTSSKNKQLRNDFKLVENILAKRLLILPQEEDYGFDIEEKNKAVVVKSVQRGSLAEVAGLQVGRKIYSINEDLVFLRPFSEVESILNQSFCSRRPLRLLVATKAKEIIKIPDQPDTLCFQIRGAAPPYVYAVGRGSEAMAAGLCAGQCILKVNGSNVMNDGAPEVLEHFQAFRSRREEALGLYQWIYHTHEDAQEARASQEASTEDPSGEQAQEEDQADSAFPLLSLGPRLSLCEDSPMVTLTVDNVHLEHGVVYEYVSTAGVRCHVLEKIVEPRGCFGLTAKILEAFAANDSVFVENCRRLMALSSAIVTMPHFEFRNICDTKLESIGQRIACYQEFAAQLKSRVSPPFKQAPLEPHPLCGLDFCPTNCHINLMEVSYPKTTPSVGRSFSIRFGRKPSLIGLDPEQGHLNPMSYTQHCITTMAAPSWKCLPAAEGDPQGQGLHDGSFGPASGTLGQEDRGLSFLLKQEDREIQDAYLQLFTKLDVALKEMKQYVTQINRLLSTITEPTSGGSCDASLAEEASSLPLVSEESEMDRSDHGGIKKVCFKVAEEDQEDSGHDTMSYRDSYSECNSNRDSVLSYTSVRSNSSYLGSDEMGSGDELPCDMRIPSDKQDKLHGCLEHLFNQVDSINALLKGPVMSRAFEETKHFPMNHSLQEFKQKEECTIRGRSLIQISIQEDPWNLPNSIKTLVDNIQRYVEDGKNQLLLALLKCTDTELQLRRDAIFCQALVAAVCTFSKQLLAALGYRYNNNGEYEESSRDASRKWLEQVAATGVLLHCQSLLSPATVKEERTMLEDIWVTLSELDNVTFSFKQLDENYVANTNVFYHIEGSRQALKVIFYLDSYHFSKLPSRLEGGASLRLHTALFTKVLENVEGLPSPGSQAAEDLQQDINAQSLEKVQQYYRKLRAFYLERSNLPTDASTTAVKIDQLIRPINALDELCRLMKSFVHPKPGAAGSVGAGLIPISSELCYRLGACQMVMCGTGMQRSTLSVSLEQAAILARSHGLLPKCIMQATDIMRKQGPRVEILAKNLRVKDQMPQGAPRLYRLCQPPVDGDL

[1] = biological target: T2, EE-P-Rex1 (purified recombinant wild type) (human, UniProt Q8TCU6 1-1659)
T2 construct: P-Rex1, human, wild type recombinant protein; also called wild type EE-P-Rex1; source: baculovirus-infected Sf9 cells, purified using the EE tag
T2 sequence (Q8TCU6 whole entry): as the sequence (Q8TCU6 whole entry E56A/N238A, the tested form may be a part) above, with A56E, A238N counted along it

His-P-Rex2 (wild type) = biological target: T3, His-P-Rex2 (wild type) (human, UniProt Q70Z35 1-1606)
T3 construct: P-Rex2, human, wild type, subcloned into pENTR3C and recombined with pDEST10; also called wild type His-P-Rex2; source: baculovirus-infected Sf9 cells, purified (Ni-NTA agarose, desalting); not shown: His6, N-terminal, kept
T3 sequence (Q70Z35 whole entry): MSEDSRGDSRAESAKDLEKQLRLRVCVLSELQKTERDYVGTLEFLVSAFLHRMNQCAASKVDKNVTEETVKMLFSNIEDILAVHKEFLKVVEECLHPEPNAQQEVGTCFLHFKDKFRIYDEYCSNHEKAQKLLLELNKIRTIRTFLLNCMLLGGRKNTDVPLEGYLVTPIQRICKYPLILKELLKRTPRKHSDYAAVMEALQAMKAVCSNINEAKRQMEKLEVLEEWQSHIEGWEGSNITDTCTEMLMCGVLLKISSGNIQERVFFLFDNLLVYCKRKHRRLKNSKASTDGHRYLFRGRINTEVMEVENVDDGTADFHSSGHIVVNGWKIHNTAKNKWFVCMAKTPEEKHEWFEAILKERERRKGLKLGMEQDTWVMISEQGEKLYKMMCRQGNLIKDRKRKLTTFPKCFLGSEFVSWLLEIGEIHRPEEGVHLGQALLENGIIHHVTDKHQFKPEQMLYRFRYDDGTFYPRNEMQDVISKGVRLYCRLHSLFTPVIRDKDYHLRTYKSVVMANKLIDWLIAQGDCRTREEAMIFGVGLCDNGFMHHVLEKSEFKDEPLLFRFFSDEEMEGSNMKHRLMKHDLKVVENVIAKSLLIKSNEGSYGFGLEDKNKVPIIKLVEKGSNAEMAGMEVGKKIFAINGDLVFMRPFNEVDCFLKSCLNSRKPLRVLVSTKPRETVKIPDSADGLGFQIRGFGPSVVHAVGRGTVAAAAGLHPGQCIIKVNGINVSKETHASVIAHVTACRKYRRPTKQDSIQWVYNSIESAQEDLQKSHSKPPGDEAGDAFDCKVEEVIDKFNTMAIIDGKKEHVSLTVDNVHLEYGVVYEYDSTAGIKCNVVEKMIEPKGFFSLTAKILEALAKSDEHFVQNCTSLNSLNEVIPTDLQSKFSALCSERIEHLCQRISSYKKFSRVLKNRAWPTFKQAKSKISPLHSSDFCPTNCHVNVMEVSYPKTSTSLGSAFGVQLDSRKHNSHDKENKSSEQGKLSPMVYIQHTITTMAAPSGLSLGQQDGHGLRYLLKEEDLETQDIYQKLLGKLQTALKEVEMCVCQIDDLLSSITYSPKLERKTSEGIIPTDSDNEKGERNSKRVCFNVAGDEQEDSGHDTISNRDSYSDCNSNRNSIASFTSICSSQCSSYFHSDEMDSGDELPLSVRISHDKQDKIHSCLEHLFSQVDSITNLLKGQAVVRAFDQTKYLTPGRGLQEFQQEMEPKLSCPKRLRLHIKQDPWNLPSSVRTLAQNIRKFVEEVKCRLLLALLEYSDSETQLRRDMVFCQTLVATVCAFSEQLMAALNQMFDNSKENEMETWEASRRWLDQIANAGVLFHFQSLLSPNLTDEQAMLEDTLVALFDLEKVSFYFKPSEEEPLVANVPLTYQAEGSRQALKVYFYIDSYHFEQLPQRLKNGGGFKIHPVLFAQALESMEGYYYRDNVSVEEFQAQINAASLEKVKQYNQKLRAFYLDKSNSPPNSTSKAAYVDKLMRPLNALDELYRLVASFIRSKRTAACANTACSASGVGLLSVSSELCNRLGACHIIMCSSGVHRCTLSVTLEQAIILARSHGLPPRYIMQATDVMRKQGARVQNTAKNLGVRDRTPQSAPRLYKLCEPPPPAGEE

[2] = biological target: T4, GEF-dead His-P-Rex2 (P-Rex2^E30A,N212A) (human, UniProt Q70Z35 1-1606, E30A | N212A)
T4 construct: P-Rex2, human, with alanine mutations at Glu30 and Asn212 in the catalytic DH domain; also called GEF-dead P-Rex2; source: baculovirus-infected Sf9 cells, purified (Ni-NTA agarose, desalting); not shown: His6, N-terminal, kept
T4 sequence (Q70Z35 whole entry E30A/N212A, the tested form may be a part): as the sequence (Q70Z35 whole entry) above, with E30A, N212A counted along it

binding result (GEF-dead EE-P-Rex1): binds
binding result [1]: binds
binding result (His-P-Rex2 (wild type)): binds
binding result [2]: binds
B1: GST-Grk2 (enzyme, human, UniProt P25098 1-689, looked up)
chain: MADLEAVLADVSYLMAMEKSKATPAARASKKILLPEPSIRSVMQKYLEDRGEVTFEKIFSQKLGYLLFRDFCLNHLEEARPLVEFYEEIKKYEKLETEEERVARSREIFDSYIMKELLACSHPFSKSATEHVQGHLGKKQVPPDLFQPYIEEICQNLRGDVFQKFIESDKFTRFCQWKNVELNIHLTMNDFSVHRIIGRGGFGEVYGCRKADTGKMYAMKCLDKKRIKMKQGETLALNERIMLSLVSTGDCPFIVCMSYAFHTPDKLSFILDLMNGGDLHYHLSQHGVFSEADMRFYAAEIILGLEHMHNRFVVYRDLKPANILLDEHGHVRISDLGLACDFSKKKPHASVGTHGYMAPEVLQKGVAYDSSADWFSLGCMLFKLLRGHSPFRQHKTKDKHEIDRMTLTMAVELPDSFSPELRSLLEGLLQRDVNRRLGCLGRGAQEVKESPFFRSLDWQMVFLQKYPPPLIPPRGEVNAADAFDIGSFDEEDTKGIKLLDSDQELYRNFPLTISERWQQEVAETVFDTINAETDRLEARKKAKNKQLGHEEDYALGKDCIMHGYMSKMGNPFLTQWQRRYFYLFPNRLEWRGEGEAPQSLLTMEEIQSVEETQIKERKCLLLKIRGGKQFILQCDSDPELVQWKKELRDAYREAQQLVQRVPKMKNKPRSPVVELSKVPLVQRGSANGL
notes: G protein-coupled receptor kinase 2 (Grk2), human, recombinant; also called recombinant human GST-Grk2; source: bought: Abcam (ab125620), Sf9 cell-derived recombinant
